Biological target: PNKP (UniProt Q96T60)
Assay: Ni-NTA co-purification of XRCC1-His complexes, immunoblot
Conditions: reference: wild-type XRCC1-His; sites S518,T519,T523

For “XRCC1 (from UniProt P18887) XRCC1-His S518A/T519A/T523A”, the “binding against the reference” value was “weaker”.
